From the supplement of paper PMC10567573

B1: HESX1 (parent)
chain: ENKPSTCSFSIERILGLDQKKDCV

Variants of: B1
Assay: protein stability index of a GFP-peptide fusion (GPS, HEK-293T) (PSI 1-6); higher = more stable
Conditions: c terminus: a fixed tail appended
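Also: lentivirally expressed fusions sorted by FACS into six bins by GFP to DsRed ratio, PSI derived from sequencing read proportions per bin multiplied by bin number.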

Variant | protein stability index
ENKPSTCSFSIERILGLDQNKDCV | 2.71
ENKPSTCSFSIERILGLDQVKDCV | 2.25
ENKPSTCSFSIERILGLDQDKDCV | 3.27
ENKPSTCSFSIERILGLDQSKDCV | 2.69
ENKPSTCSFSIERILGLDQFKDCV | 2.22
ENKPSTCSFSIERILGLDQMKDCV | 2.67
ENKPSTCSFSIERILGLDQEKDCV | 3.08
ENKPSTCSFSIERILGLDQHKDCV | 2.47
ENKPSTCSFSIERILGLDQCKDCV | 2.52
ENKPSTCSFSIERILGLDQTKDCV | 2.53
ENKPSTCSFSIERILGLDQAKDCV | 2.45
ENKPSTCSFSIERILGLDQIKDCV | 2.13
ENKPSTCSFSIERILGLDQWKDCV | 1.62
ENKPSTCSFSIERILGLDQRKDCV | 2.41
ENKPSTCSFSIERILGLDQLKDCV | 1.93
ENKPSTCSFSIERILGLDQYKDCV | 1.97
ENKPSTCSFSIERILGLDQQKDCV | 2.56
ENKPSTCSFSIERILGLDQPKDCV | 2.75
ENKPSTCSFSIERLLGLDQKKDCV | 3.11
ENKPSTCSFSIERYLGLDQKKDCV | 3.75
ENKPSTCSFSIERVLGLDQKKDCV | 3.39
ENKPSTCSFSIERFLGLDQKKDCV | 3.8
ENKPSTCSFSIERGLGLDQKKDCV | 4.09
ENKPSTCSFSIERTLGLDQKKDCV | 4.16

Variant | protein stability index
ENKPSTCSFSIERKLGLDQKKDCV | 4.31
ENKPSTCSFSIERDLGLDQKKDCV | 4.11
ENKPSTCSFSIERMLGLDQKKDCV | 3.15
ENKPSTCSFSIERWLGLDQKKDCV | 3.38
ENKPSTCSFSIERALGLDQKKDCV | 4.54
ENKPSTCSFSIERNLGLDQKKDCV | 3.83
ENKPSTCSFSIERHLGLDQKKDCV | 4.1
ENKPSTCSFSIERQLGLDQKKDCV | 4.12
ENKPSTCSFSIERPLGLDQKKDCV | 4.34
ENKPSTCSFSIERRLGLDQKKDCV | 3.97
ENKPSTCSFSIERCLGLDQKKDCV | 3.97
ENKPSTCSFSIERELGLDQKKDCV | 4.88
ENKPSTCSFSIERSLGLDQKKDCV | 4.52
ENKPSTCSFSIEKILGLDQKKDCV | 2.33
ENKPSTCSFSIEYILGLDQKKDCV | 2.08
ENKPSTCSFSIEDILGLDQKKDCV | 3.9
ENKPSTCSFSIEWILGLDQKKDCV | 1.75
ENKPSTCSFSIEHILGLDQKKDCV | 3.31
ENKPSTCSFSIECILGLDQKKDCV | 2.6
ENKPSTCSFSIEPILGLDQKKDCV | 4.41
ENKPSTCSFSIEEILGLDQKKDCV | 3.46
ENKPSTCSFSIENILGLDQKKDCV | 3.96
ENKPSTCSFSIELILGLDQKKDCV | 2.27
ENKPSTCSFSIEIILGLDQKKDCV | 1.82

Variant | protein stability index
ENKPSTCSFSIETILGLDQKKDCV | 3.35
ENKPSTCSFSIEVILGLDQKKDCV | 2.12
ENKPSTCSFSIEQILGLDQKKDCV | 2.68
ENKPSTCSFSIEGILGLDQKKDCV | 3.78
ENKPSTCSFSIEFILGLDQKKDCV | 1.48
ENKPSTCSFSIEMILGLDQKKDCV | 1.9
ENKPSTCSFSIESILGLDQKKDCV | 3.24
ENKPSTCSFSIEAILGLDQKKDCV | 3.18
ENKPSTCSFSIERISGLDQKKDCV | 3.5
ENKPSTCSFSIERIVGLDQKKDCV | 4.16
ENKPSTCSFSIERIYGLDQKKDCV | 2.38
ENKPSTCSFSIERIPGLDQKKDCV | 3.44
ENKPSTCSFSIERIIGLDQKKDCV | 2.96
ENKPSTCSFSIERIFGLDQKKDCV | 2.53
ENKPSTCSFSIERIRGLDQKKDCV | 3.61
ENKPSTCSFSIERIHGLDQKKDCV | 3.13
ENKPSTCSFSIERIDGLDQKKDCV | 4.06
ENKPSTCSFSIERIMGLDQKKDCV | 2.12
ENKPSTCSFSIERIWGLDQKKDCV | 2.46
ENKPSTCSFSIERITGLDQKKDCV | 4
ENKPSTCSFSIERINGLDQKKDCV | 3.73
ENKPSTCSFSIERIEGLDQKKDCV | 4.11
ENKPSTCSFSIERICGLDQKKDCV | 2.63
ENKPSTCSFSIERIGGLDQKKDCV | 3.27

Variant | protein stability index
ENKPSTCSFSIERIQGLDQKKDCV | 2.69
ENKPSTCSFSIERIKGLDQKKDCV | 4.23
ENKPSTCSFSIERIAGLDQKKDCV | 3.14
ENKPSTCSFSIERILGLDRKKDCV | 3.2
ENKPSTCSFSIERILGLDAKKDCV | 2.33
ENKPSTCSFSIERILGLDCKKDCV | 2.67
ENKPSTCSFSIERILGLDFKKDCV | 2.12
ENKPSTCSFSIERILGLDVKKDCV | 2.71
ENKPSTCSFSIERILGLDKKKDCV | 2.94
ENKPSTCSFSIERILGLDWKKDCV | 1.35
ENKPSTCSFSIERILGLDEKKDCV | 3.23
ENKPSTCSFSIERILGLDHKKDCV | 2.47
ENKPSTCSFSIERILGLDGKKDCV | 3.06
ENKPSTCSFSIERILGLDDKKDCV | 3.34
ENKPSTCSFSIERILGLDPKKDCV | 3.14
ENKPSTCSFSIERILGLDNKKDCV | 2.64
ENKPSTCSFSIERILGLDYKKDCV | 1.97
ENKPSTCSFSIERILGLDLKKDCV | 2.62
ENKPSTCSFSIERILGLDSKKDCV | 2.79
ENKPSTCSFSIERILGLDIKKDCV | 2.39
ENKPSTCSFSIERILGLDMKKDCV | 2.6
ENKPSTCSFSIERILGLDTKKDCV | 2.88
ENKPSTCSFSIERILGLNQKKDCV | 2.62
ENKPSTCSFSIERILGLAQKKDCV | 2.94

Variant | protein stability index
ENKPSTCSFSIERILGLCQKKDCV | 2.85
ENKPSTCSFSIERILGLIQKKDCV | 1.74
ENKPSTCSFSIERILGLLQKKDCV | 2.12
ENKPSTCSFSIERILGLEQKKDCV | 3.4
ENKPSTCSFSIERILGLYQKKDCV | 2.14
ENKPSTCSFSIERILGLTQKKDCV | 2.77
ENKPSTCSFSIERILGLGQKKDCV | 2.55
ENKPSTCSFSIERILGLWQKKDCV | 2.32
ENKPSTCSFSIERILGLVQKKDCV | 1.8
ENKPSTCSFSIERILGLQQKKDCV | 2.89
ENKPSTCSFSIERILGLPQKKDCV | 2.71
ENKPSTCSFSIERILGLMQKKDCV | 2.23
ENKPSTCSFSIERILGLHQKKDCV | 3
ENKPSTCSFSIERILGLSQKKDCV | 3.13
ENKPSTCSFSIERILGLRQKKDCV | 2.76
ENKPSTCSFSIERILGLKQKKDCV | 2.79
ENKPSTCSFSIERILGLFQKKDCV | 1.85
ENKPSTCSFSIERILGLDQKDDCV | 3.16
ENKPSTCSFSIERILGLDQKCDCV | 2.11
ENKPSTCSFSIERILGLDQKHDCV | 2.35
ENKPSTCSFSIERILGLDQKEDCV | 3.4
ENKPSTCSFSIERILGLDQKADCV | 2.41
ENKPSTCSFSIERILGLDQKFDCV | 2.35
ENKPSTCSFSIERILGLDQKGDCV | 2.86

Variant | protein stability index
ENKPSTCSFSIERILGGDQKKDCV | 3.83
ENKPSTCSFSIERILGDDQKKDCV | 4.4
ENKPSTCSFSIERILGHDQKKDCV | 3.53
ENKPSTCSFSIERILGSDQKKDCV | 3.86
ENKPSTCSFSIERILGADQKKDCV | 4
ENKPSTCSFSIERILGWDQKKDCV | 2.82
ENKPSTCSFSIERILGNDQKKDCV | 4.42
ENKPSTCSFSIERILGEDQKKDCV | 4.25
ENKPSTCSFSIERILGYDQKKDCV | 2.56
ENKPSTCSFSIERILGFDQKKDCV | 2.91
ENKPSTCSFSIERILGTDQKKDCV | 3.78
ENKPSTCSFSIERILGPDQKKDCV | 4.69
ENKPSTCSFSIERILGQDQKKDCV | 3.59
ENKPSTCSFSIERILGIDQKKDCV | 3.31
ENKPSTCSFSIERILGVDQKKDCV | 4.2
ENKPSTCSFSIERILGMDQKKDCV | 2.11
ENKPSTCSFSIERILGCDQKKDCV | 3.22
ENKPSTCSFSIERILGKDQKKDCV | 4.04
ENKPSTCSFSIKRILGLDQKKDCV | 2.86
ENKPSTCSFSIPRILGLDQKKDCV | 2.94
ENKPSTCSFSILRILGLDQKKDCV | 1.86
ENKPSTCSFSIDRILGLDQKKDCV | 3.8
ENKPSTCSFSIYRILGLDQKKDCV | 1.9
ENKPSTCSFSINRILGLDQKKDCV | 3.44

Variant | protein stability index
ENKPSTCSFSIWRILGLDQKKDCV | 1.48
ENKPSTCSFSIGRILGLDQKKDCV | 3.65
ENKPSTCSFSIQRILGLDQKKDCV | 2.57
ENKPSTCSFSIRRILGLDQKKDCV | 2.46
ENKPSTCSFSIMRILGLDQKKDCV | 1.86
ENKPSTCSFSIHRILGLDQKKDCV | 2.47
ENKPSTCSFSIIRILGLDQKKDCV | 1.61
ENKPSTCSFSIFRILGLDQKKDCV | 1.63
ENKPSTCSFSICRILGLDQKKDCV | 2.45
ENKPSTCSFSITRILGLDQKKDCV | 2.94
ENKPSTCSFSISRILGLDQKKDCV | 2.84
ENKPSTCSFSIVRILGLDQKKDCV | 1.64
ENKPSTCSFSIERILHLDQKKDCV | 2.83
ENKPSTCSFSIERILYLDQKKDCV | 2.28
ENKPSTCSFSIERILALDQKKDCV | 3.2
ENKPSTCSFSIERILCLDQKKDCV | 2.83
ENKPSTCSFSIERILPLDQKKDCV | 3.75
ENKPSTCSFSIERILKLDQKKDCV | 2.9
ENKPSTCSFSIERILELDQKKDCV | 3.27
ENKPSTCSFSIERILILDQKKDCV | 2.63
ENKPSTCSFSIERILLLDQKKDCV | 2.43
ENKPSTCSFSIERILSLDQKKDCV | 3.28
ENKPSTCSFSIERILWLDQKKDCV | 2.32
ENKPSTCSFSIERILQLDQKKDCV | 3.76

Variant | protein stability index
ENKPSTCSFSIERILDLDQKKDCV | 3.74
ENKPSTCSFSIERILMLDQKKDCV | 2.92
ENKPSTCSFSIERILNLDQKKDCV | 3.41
ENKPSTCSFSIERILFLDQKKDCV | 2.49
ENKPSTCSFSIERILTLDQKKDCV | 3.69
ENKPSTCSFSIERILVLDQKKDCV | 3.15
ENKPSTCSFSIERILRLDQKKDCV | 2.23
ENKPSTCSFSRERILGLDQKKDCV | 4.73
ENKPSTCSFSQERILGLDQKKDCV | 3.97
ENKPSTCSFSKERILGLDQKKDCV | 4
ENKPSTCSFSHERILGLDQKKDCV | 3.7
ENKPSTCSFSNERILGLDQKKDCV | 4.63
ENKPSTCSFSWERILGLDQKKDCV | 2.77
ENKPSTCSFSYERILGLDQKKDCV | 3.13
ENKPSTCSFSMERILGLDQKKDCV | 3.42
ENKPSTCSFSVERILGLDQKKDCV | 2.91
ENKPSTCSFSLERILGLDQKKDCV | 3.58
ENKPSTCSFSPERILGLDQKKDCV | 5.12
ENKPSTCSFSTERILGLDQKKDCV | 3.52
ENKPSTCSFSSERILGLDQKKDCV | 4.21
